Measured values taken from the supplement of paper PMC10126150.
± gives the standard deviation of the averaged measurements.

Tested on: ATP
Assay: switch fluorescence ratio, 500 uM ATP over buffer (Cy3 cluster intensity, sum of 5 cycles each) (fold (ratio)); higher = stronger signal-on switching upon ATP binding; sequences stand for … in TCGTCGGCAGCGTCAGATGTGTATAAGAGACAGTTTTTTTTTTTTTTTTTTTTTTTTT…TC
Details: aptamer strand: ATP DNA aptamer (quencher-CACCTGGGGGAGTATTGCGGAGGAAGG + anchor), 100 nM annealed; ATP concentration: 500 uM
Summary of the method: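 Between each of five buffer/ATP cycles, the flow-cell was stripped with NaOH and re-annealed. Each cycle imaged Cy3-labelled switching-strand clusters, annealed to 100 nM quencher-labelled ATP aptamer on a modified Illumina MiSeq flow-cell, first in selection buffer and then after 15 min with 500 uM ATP at 22 °C. The fluorescence ratio is summed target-cycle over summed buffer-cycle Cy3 intensity per cluster, averaged per switch-domain sequence, with clusters outside 100-1000 RFU excluded.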
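Also: ATP exposure 15 min at 22 °C before imaging.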

Sequence | switch fluorescence ratio
TAAAGGAAAT | 1.09 ± 0.11
CATTGCAAAC | 5.13 ± 0.53
ATTGTGGAGA | 1.03 ± 0.032
GTGGTGTTGT | 0.97 ± 0.037
CGGGGTCTTC | 0.996 ± 0.012
TTAAGGGGCA | 1.02 ± 0.035
AGGACGATGG | 1.1 ± 0.16
ACATGACATG | 1.04 ± 0.03
GTTAAGGATG | 1.012 ± 0.0071
CACCTTAATT | 1.037 ± 0.0075
TGCGTAGGAA | 1.061 ± 0.0049
TGGTTATGGC | 0.923 ± 0.082
AGGAAAACAG | 1.026 ± 0.0032
GATGTCGTAC | 0.99 ± 0.012
AAGTAGTTTT | 0.985 ± 0.024
AATTAATATT | 0.988 ± 0.021
TGGCAAATGT | 0.9818 ± 0.0049
GCTAGGGTTT | 0.965 ± 0.015
ATGTGGGGTT | 1.01 ± 0.014
GGACACGCAG | 1.02 ± 0.047
GCGTGCTGAA | 1.04 ± 0.043
GATTTCGATT | 0.969 ± 0.012
GGCTGTTGGT | 0.9655 ± 0.0072
ACTTTAGGGT | 1.15 ± 0.12
TTTTGTGGCA | 0.987 ± 0.014

Sequence | switch fluorescence ratio
CAGGTGTGGA | 1.044 ± 0.0053
TGTCGTTGGA | 0.998 ± 0.043
CAGTTTGTGG | 0.9917 ± 0.0018
TTTGTCCAGT | 0.991 ± 0.041
CTGCAAGACA | 2.64 ± 0.72
TCGTTTTGTT | 0.975 ± 0.051
GTTAGGGGGA | 1 ± 0.011
AAGGAAGGCC | 1.0145 ± 0.00052
ATAGGGGAAA | 0.987 ± 0.024
GGGTTCGGTG | 1.01 ± 0.039
TGTAAGGATG | 0.996 ± 0.013
GTTCCCTTGA | 1.02 ± 0.018
CTTTACGGGC | 1.02 ± 0.038
TTTTGACGCG | 1.06 ± 0.052
GGGTGCGCGT | 0.977 ± 0.011
GAGTGGGGA | 1.03 ± 0.04
GGATTGGACT | 1 ± 0.019
TGTATTTTTT | 1.05 ± 0.093
GGTGTAACAG | 0.991 ± 0.012
ATCGCTTACA | 1.02 ± 0.028
TTGATTGGGG | 0.989 ± 0.029
GGGAGATATG | 0.9788 ± 0.0095
CGAGGCACAG | 1.53 ± 0.052
GCCCCCAGCG | 4.61 ± 0.65
TCTAGGCGTC | 1.07 ± 0.031

Sequence | switch fluorescence ratio
TAAGATTTTA | 1 ± 0.042
CAGAGTCCTC | 1.01 ± 0.027
TGGGAGATAT | 1 ± 0.028
GAGGGTCTTT | 0.969 ± 0.025
TTTTAAGCCC | 1.03 ± 0.046
CTGACTCCTT | 1.517 ± 0.015
CACTGGGGGT | 1.03 ± 0.019
GGCCGGTAAA | 1 ± 0.051
TGTACTTTGG | 1.01 ± 0.022
AAATAGGCAT | 1.0235 ± 0.00029
TGGTATAGTC | 1.001 ± 0.0059
GCCGATGCCT | 1.02 ± 0.015
TAAGTCGGTC | 0.9827 ± 0.0011
ACTGGGTGAG | 1.02 ± 0.023
GAGGGAGATG | 1.03 ± 0.018
ATAAAGCATA | 1.03 ± 0.026
CATATATTCT | 0.977 ± 0.033
TTCGGGAGCC | 1 ± 0.024
GCTAGTATG | 0.9954 ± 0.0072
GCCCAGACGG | 1.31 ± 0.41
AAGGGGGCTT | 0.9943 ± 0.0025
TTTCAAGGGA | 0.9904 ± 0.0048
TGTTAGGTGA | 1.07 ± 0.011
GTGTTTTTCC | 1.41 ± 0.49
AGAGCCTGGG | 1.04 ± 0.02

Sequence | switch fluorescence ratio
CGATAGTTGT | 1.27 ± 0.38
TGAGTTGGGA | 1.002 ± 0.0057
CTGTTACGCA | 1.201 ± 0.0046
AAGGGATTTA | 1.04 ± 0.034
TGGGGCGGTT | 0.979 ± 0.024
TAAGGGTGA | 1.03 ± 0.015
TTTGAAGTGT | 0.997 ± 0.02
GTCCCGGTTT | 1.02 ± 0.095
TGCCGTAGTC | 0.9685 ± 0.0092
TTGGTTTTAG | 1 ± 0.033
GCAACAATGG | 1.08 ± 0.02
TTTAACTGCG | 1.02 ± 0.036
CGGTTTCTTT | 0.967 ± 0.053
GGGATTGGGT | 1.01 ± 0.021
GCAAGATCGC | 1.09 ± 0.02
GGGAGAAGGT | 0.967 ± 0.011
AAAAAGTTGT | 1 ± 0.028
AGGGAAAGGA | 0.9889 ± 0.0085
GAGGTTCGGT | 1.019 ± 0.0037
AGCAAAACGT | 1.17 ± 0.19
CAGGGGTGGC | 0.9529 ± 0.0021
GACTAAGTGT | 1 ± 0.022
GTTTATGTGA | 1.03 ± 0.057
GAATGGGGA | 0.986 ± 0.021
AGAAAGCCGG | 0.989 ± 0.014

Sequence | switch fluorescence ratio
AGGTTCTGGG | 1.01 ± 0.03
TTACTAGGCG | 1.01 ± 0.053
TCTCTTATGA | 0.997 ± 0.011
TGAAGGGAAC | 1.06 ± 0.13
GCTCTGTCGG | 1.02 ± 0.012
TACGATTTAA | 1.01 ± 0.026
CCGGATTTTG | 0.981 ± 0.012
ATTATGAACC | 1.04 ± 0.016
AACCGTTGGT | 1.01 ± 0.014
TAAGGTAGGG | 1.01 ± 0.013
TGCGTACTAT | 1.06 ± 0.1
AGATCGTTTT | 0.999 ± 0.012
AATATTGCAC | 1.04 ± 0.021
AATCGTGGTG | 0.982 ± 0.047
GATACCGGTG | 1.17 ± 0.25
CGGTTTTGTA | 0.971 ± 0.028
ACGTTGACAG | 1.05 ± 0.011
TTGACAAGGG | 0.997 ± 0.015
CGTATTAGGT | 0.9553 ± 0.0086
TTTATCATGC | 0.987 ± 0.019
GCGGGAGGAT | 1.031 ± 0.01
CATGTATGCT | 1 ± 0.014
GGTGGGGGGG | 1 ± 0.036
GGGGGGCCCA | 1.0208 ± 0.00082
ATATCCTTGG | 0.984 ± 0.026

Sequence | switch fluorescence ratio
GGTTAAACAA | 1.01 ± 0.016
TGTTAGGATT | 0.997 ± 0.014
CTCAATAGGG | 1.01 ± 0.038
ATACGACTTA | 1.04 ± 0.014
GATGCTTATG | 1.01 ± 0.04
ATAAAGATGG | 0.95924 ± 0.00085
CGTTTCAGGT | 0.994 ± 0.036
CTGTGACAAT | 1.04 ± 0.029
CCAGGTTGTT | 1.551 ± 0.0043
GTGACGGGGT | 1.01 ± 0.022
GGATTGGGTT | 1.04 ± 0.069
ATATTACTGC | 1.07 ± 0.02
CCTGTAAATG | 1.15 ± 0.21
TCAGGGTGGG | 1 ± 0.029
AGATTTTCCT | 1.19 ± 0.35
GTGTTTATGC | 0.991 ± 0.0044
TAGGGTACCG | 1.06 ± 0.032
ATTCCTAGA | 0.992 ± 0.021
TGGGAATGTT | 1.01 ± 0.011
GACTATGTTT | 1 ± 0.044
ACAGGGGTGT | 1.09 ± 0.014
TAGAGATCTG | 0.996 ± 0.014
GCGCCCATGA | 0.982 ± 0.043
AGGAGGGGAT | 1.02 ± 0.045
TTCCTACGAT | 1.42 ± 0.56

Sequence | switch fluorescence ratio
TTCATTGAGT | 1.028 ± 0.0048
TGTTCATATA | 1.01 ± 0.021
CAGGTTAGGT | 1.004 ± 0.01
TACGCGGGCA | 1.07 ± 0.11
AACCGCTATA | 3.11 ± 1
TCGAGAGGTG | 1.1 ± 0.1
CGGGTGAGTT | 1.15 ± 0.25
AACCTTTGTT | 1.06 ± 0.083
CTATTGGGAT | 0.98078 ± 0.00046
TTCCAGGCAA | 4.47 ± 0.45
AAGGCTGTAC | 1.71 ± 0.1
TAAGGCGGGC | 0.988 ± 0.032
TATTTATGTC | 1.02 ± 0.025
ACATTGAGGT | 1.01 ± 0.048
TGATGTGAAA | 0.977 ± 0.015
GAAAGGTAAG | 0.9934 ± 0.0036
ACCGGGTTGG | 0.999 ± 0.01
CGGTTTGGAT | 1.01 ± 0.035
TATGTTACCA | 0.977 ± 0.046
GGTCTTTTTT | 1.02 ± 0.05
GTGGGGCTGG | 1.008 ± 0.0055
GGGTAATAAA | 1.019 ± 0.0052
TTTGACCAGG | 1.02 ± 0.045
TTGGACGGGG | 1.07 ± 0.035
GGGGGAATGT | 0.983 ± 0.026

Sequence | switch fluorescence ratio
TTAATTAGTT | 1.01 ± 0.023
AAGGGCTATT | 1 ± 0.029
CTTTGTGATA | 1.04 ± 0.025
CGTGTATTTG | 0.989 ± 0.011
TCGTACTGGT | 0.99 ± 0.068
GGGTCTAATT | 0.9917 ± 0.0014
GCTAAGCCTG | 1.03 ± 0.017
ACAGATTAGT | 1 ± 0.024
GCTTGGAGAG | 0.99 ± 0.013
GGTTTAGCG | 1.014 ± 0.0025
GGGGGGCTTC | 0.975 ± 0.019
TTCTGCAGGG | 0.997 ± 0.043
GCTATATTTT | 0.982 ± 0.017
GGGGGTTATA | 0.965 ± 0.016
GGGGGTTTTG | 0.993 ± 0.038
CATCTATGGT | 0.992 ± 0.01
CTGGGAAGGG | 0.9281 ± 0.0061
TTGGGGTCCT | 0.984 ± 0.023
TTATTAGCAA | 1.93 ± 1.4
ACGCAACGCC | 1.6634 ± 0.0003
CTCGGTATGC | 1.257 ± 0.0034
GGTTTCATGG | 0.998 ± 0.012
TGAGAGAAGT | 0.968 ± 0.071
TAAGCGGGTC | 1 ± 0.018
TGATTGGTTT | 1 ± 0.011
